Laboratory results published in publication PMC7033585.
pKd: −log10 of the molar value.

Experiments:
[1] = biological target: CdiI536 (Escherichia coli) (UniProt Q0T964); conditions: cited from earlier work
[2] = biological target: YeeF-CT^H581A, C-terminal toxic domain of YeeF (Ile527 to Gly669) with the point mutation H581A (Bacillus subtilis subsp. spizizenii str. W23) (UniProt O31506); experiment: AUC; sedimentation velocity of each protein alone at 8, 16 and 32 μM; 20 mM HEPES pH 7.5, 150 mM NaCl; 40,000 rpm, 25°C; c(s) fit with SEDFIT
[3] = biological target: YeeF-CT^H581A, point variant of the C-terminal toxic domain of YeeF (Bacillus subtilis subsp. spizizenii str. W23) (UniProt O31506); experiment: as above
[4] = biological target: YeeF-CT^H581A, point variant of the C-terminal toxic domain of YeeF (Bacillus subtilis subsp. spizizenii str. W23) (UniProt O31506); experiment: AUC; sedimentation velocity of mixtures: YeeF-CT fixed, increasing YezG, incubated at 4°C for 1 h beforehand; 20 mM HEPES pH 7.5, 150 mM NaCl; 25°C
[5] = biological target: YeeF-CT^H581A, point variant of the C-terminal toxic domain of YeeF (Bacillus subtilis subsp. spizizenii str. W23) (UniProt O31506); experiment: ITC; YeeF-CT^(M) 10 μM in the cell, YezG 300 μM in the syringe; 25°C; 20 mM HEPES pH 7.5, 150 mM NaCl; two binding site model

**Q.** With CdiA-CT536 CT (from UniProt Q0T963) as the substance, how does the pKd [1] read?
**A.** 7.58

**Q.** For “YeeF-CT^H581A, C-terminal toxic domain of YeeF (Ile527 to Gly669) with the point mutation H581A (from UniProt O31506 527-669) (domain or fragment)”, which stoichiometry N [2] is on record?
**A.** 2

**Q.** With “YeeF-CT^H581A, point variant of the C-terminal toxic domain of YeeF (from UniProt O31506 527-669) (domain or fragment)” as the substance, how does the stoichiometry N [3] read?
**A.** 2

**Q.** Which stoichiometry N (YezG monomers per YeeF-CT dimer) [4] does the source give for “YezG immunity protein (from UniProt C0H3X4 1-151) (natural protein)” here?
**A.** 2

**Q.** And the KD1 (first site of the two-site fit) [5]?
**A.** 29.4 nM

**Q.** And the KD2 (second site of the two-site fit) [5]?
**A.** 91.7 nM
